Measured values from the supplement of paper PMC7877785.
± gives the uncertainty stated by the source.

Experiment: self-splicing fitness, log relative to wild type (ln ratio); higher = more splicing; Tetrahymena group I intron in knt gene, E. coli kanamycin selection, DiMSum; sequences stand for … in CUCUCU…GGAGGGAAAAGUUAUCAGGCAUGCACCUGGUAGCUAGUCUUUAAACCAAUAGAUUGCAUCGGUUUAAAAGGCAAGACCGUCAAAUUGCGGGAAAGGGGUCAACAGCCGUUCAGUACCAAGUCUCAGGGGAAACUUUGAGAUGGCCUUGCAAAGGGUAUGGUAAUAAGCUGACGGACAUGGUCCUAACCACGCAGCCAAGUCCUAAGUCAACAGAUCUUCUGUUGAUAUGGAUGCAGUUCACAGACUAAAUGUCGGUCGGGGAAGAUGUAUUCUUCUCAUAAGAUAUAGUCGGACCUCUCCUUAAUGGGAGCUAGCGGAUGAAGUGAUGCAACACUGGAGCCGCUGGGAACUAAUUUGUAUGCGAAAGUAUAUUGAUUAGUUUUGGAGUACUCGUGGUCG
Procedure, shortened: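 Fitness was computed with DiMSum as the error-weighted combination of replicate fold changes, kanamycin versus none, each normalised to wild type. The library randomised all eight intron nucleotides of the P1ex region, with the intron placed in the knt kanamycin-resistance gene on pET-22b(+) in E. coli BL21(DE3). Six replicate transformations were grown overnight at 37°C or 30°C on LB agar with or without 25 μg/mL kanamycin, plus 100 μg/mL carbenicillin, 50 μM IPTG and 0.2% rhamnose. Pooled colonies were amplicon-sequenced on an Illumina HiSeq 2500.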

## AAGUAGCAAUAUUACGAGUG
30 °C
  self-splicing fitness (ln): -3.16 ± 0.18
37 °C
  self-splicing fitness (ln): -2.03 ± 0.19

## CCAUAGCAAUAUUACGAACG
30 °C
  self-splicing fitness (ln): -0.593 ± 0.09
37 °C
  self-splicing fitness (ln): -0.0842 ± 0.11

## CCGGAGCAAUAUUACGGAUG
30 °C
  self-splicing fitness (ln): -2.78 ± 0.22
37 °C
  self-splicing fitness (ln): -1.92 ± 0.23

## CGGAAGCAAUAUUACGCCUC
30 °C
  self-splicing fitness (ln): -3.04 ± 0.27
37 °C
  self-splicing fitness (ln): -2.89 ± 0.4

## CCAUAGCAAUAUUACGGUAU
30 °C
  self-splicing fitness (ln): -3.54 ± 0.24
37 °C
  self-splicing fitness (ln): -1.34 ± 0.19

## AUUGAGCAAUAUUACGGAUC
30 °C
  self-splicing fitness (ln): -4.03 ± 0.47
37 °C
  self-splicing fitness (ln): -2.65 ± 0.38

## UAAUAGCAAUAUUACGCUAU
30 °C
  self-splicing fitness (ln): -2.93 ± 0.19
37 °C
  self-splicing fitness (ln): -1.85 ± 0.21

## AGGUAGCAAUAUUACGCCAC
30 °C
  self-splicing fitness (ln): -3.97 ± 0.058
37 °C
  self-splicing fitness (ln): -2.98 ± 0.069

## CUGUAGCAAUAUUACGAGUU
30 °C
  self-splicing fitness (ln): -2.02 ± 0.3
37 °C
  self-splicing fitness (ln): -3.02 ± 0.37

## CGGUAGCAAUAUUACGCCUA
30 °C
  self-splicing fitness (ln): -0.535 ± 0.14
37 °C
  self-splicing fitness (ln): -0.215 ± 0.11

## GACUAGCAAUAUUACGAUUU
30 °C
  self-splicing fitness (ln): 0.261 ± 0.061
37 °C
  self-splicing fitness (ln): 0.116 ± 0.077

## GAGCAGCAAUAUUACGGCUU
30 °C
  self-splicing fitness (ln): -4.43 ± 0.33
37 °C
  self-splicing fitness (ln): -2.53 ± 0.27

## GUCAAGCAAUAUUACGAAGU
30 °C
  self-splicing fitness (ln): -2.51 ± 0.092
37 °C
  self-splicing fitness (ln): -1.16 ± 0.1

## UACUAGCAAUAUUACGUCCU
30 °C
  self-splicing fitness (ln): -1 ± 0.13
37 °C
  self-splicing fitness (ln): -1.26 ± 0.15

## GGGUAGCAAUAUUACGAUUC
30 °C
  self-splicing fitness (ln): -0.648 ± 0.12
37 °C
  self-splicing fitness (ln): 0.268 ± 0.19

## GUCUAGCAAUAUUACGGGCG
30 °C
  self-splicing fitness (ln): -1.66 ± 0.28
37 °C
  self-splicing fitness (ln): -0.341 ± 0.17

## AAUCAGCAAUAUUACGGUAA
30 °C
  self-splicing fitness (ln): 0.0235 ± 0.065
37 °C
  self-splicing fitness (ln): 0.0455 ± 0.063

## AUUCAGCAAUAUUACGCCCC
30 °C
  self-splicing fitness (ln): 0.0239 ± 0.13
37 °C
  self-splicing fitness (ln): 0.082 ± 0.23

## CUUAAGCAAUAUUACGGGCG
30 °C
  self-splicing fitness (ln): -0.789 ± 0.13
37 °C
  self-splicing fitness (ln): -0.48 ± 0.14

## AGUUAGCAAUAUUACGACGG
30 °C
  self-splicing fitness (ln): -0.829 ± 0.15
37 °C
  self-splicing fitness (ln): -0.189 ± 0.18

## ACGAAGCAAUAUUACGUGGA
30 °C
  self-splicing fitness (ln): -2.7 ± 0.13
37 °C
  self-splicing fitness (ln): -2.69 ± 0.18

## UCUCAGCAAUAUUACGAUGC
30 °C
  self-splicing fitness (ln): -3.28 ± 0.28
37 °C
  self-splicing fitness (ln): -2.55 ± 0.27

## GGAAAGCAAUAUUACGUAGU
30 °C
  self-splicing fitness (ln): -2.97 ± 0.11
37 °C
  self-splicing fitness (ln): -1.23 ± 0.088

## CGAGAGCAAUAUUACGCUAC
37 °C
  self-splicing fitness (ln): -2.11 ± 0.4

## GUUUAGCAAUAUUACGCGAU
30 °C
  self-splicing fitness (ln): -3.12 ± 0.4
37 °C
  self-splicing fitness (ln): -2.42 ± 0.42

## GUGGAGCAAUAUUACGAUCG
37 °C
  self-splicing fitness (ln): -3.31 ± 0.47

## ACGAAGCAAUAUUACGUGAU
30 °C
  self-splicing fitness (ln): -2.04 ± 0.054
37 °C
  self-splicing fitness (ln): -0.989 ± 0.072

## CACGAGCAAUAUUACGGUUC
37 °C
  self-splicing fitness (ln): -1.98 ± 0.34

## GAGGAGCAAUAUUACGCAGC
37 °C
  self-splicing fitness (ln): -1.04 ± 0.44

## CUCCAGCAAUAUUACGUUUU
30 °C
  self-splicing fitness (ln): -3.38 ± 0.12
37 °C
  self-splicing fitness (ln): -3.12 ± 0.15

## CUGAAGCAAUAUUACGUCGG
30 °C
  self-splicing fitness (ln): -3.11 ± 0.18
37 °C
  self-splicing fitness (ln): -1.14 ± 0.16

## UGUAAGCAAUAUUACGUAGU
30 °C
  self-splicing fitness (ln): -3.01 ± 0.21
37 °C
  self-splicing fitness (ln): -0.923 ± 0.18

## CCCGAGCAAUAUUACGUUUC
30 °C
  self-splicing fitness (ln): -3.44 ± 0.2
37 °C
  self-splicing fitness (ln): -3.54 ± 0.24

## CAAAAGCAAUAUUACGCGUG
30 °C
  self-splicing fitness (ln): -3.22 ± 0.11
37 °C
  self-splicing fitness (ln): -2.11 ± 0.14

## GGGCAGCAAUAUUACGAUUU
30 °C
  self-splicing fitness (ln): -0.054 ± 0.053
37 °C
  self-splicing fitness (ln): -0.281 ± 0.065

## GGCAAGCAAUAUUACGCGUU
30 °C
  self-splicing fitness (ln): -0.907 ± 0.075
37 °C
  self-splicing fitness (ln): -0.815 ± 0.1

## UCCGAGCAAUAUUACGACAG
30 °C
  self-splicing fitness (ln): -3.18 ± 0.3
37 °C
  self-splicing fitness (ln): -2.55 ± 0.3

## UCCUAGCAAUAUUACGAUAU
30 °C
  self-splicing fitness (ln): -3.78 ± 0.28
37 °C
  self-splicing fitness (ln): -2.72 ± 0.23

## GGUCAGCAAUAUUACGAGUC
30 °C
  self-splicing fitness (ln): -1.51 ± 0.09
37 °C
  self-splicing fitness (ln): -0.893 ± 0.1

## UUUCAGCAAUAUUACGGCUC
30 °C
  self-splicing fitness (ln): -1.77 ± 0.42
37 °C
  self-splicing fitness (ln): 0.0864 ± 0.23

## CCUCAGCAAUAUUACGACUA
30 °C
  self-splicing fitness (ln): -3.2 ± 0.43
37 °C
  self-splicing fitness (ln): -3.06 ± 0.32

## CUCCAGCAAUAUUACGUGCA
30 °C
  self-splicing fitness (ln): -3.43 ± 0.17
37 °C
  self-splicing fitness (ln): -2.32 ± 0.13

## UCUGAGCAAUAUUACGGAUG
30 °C
  self-splicing fitness (ln): -4.11 ± 0.31
37 °C
  self-splicing fitness (ln): -2.14 ± 0.23

## UGUUAGCAAUAUUACGAGGU
30 °C
  self-splicing fitness (ln): -3.93 ± 0.28
37 °C
  self-splicing fitness (ln): -2.8 ± 0.33

## CCUGAGCAAUAUUACGCGGC
30 °C
  self-splicing fitness (ln): -3.57 ± 0.2
37 °C
  self-splicing fitness (ln): -2.55 ± 0.22

## GAGGAGCAAUAUUACGGAGA
30 °C
  self-splicing fitness (ln): -2.95 ± 0.2
37 °C
  self-splicing fitness (ln): -2.25 ± 0.27

## ACAAAGCAAUAUUACGAUGA
30 °C
  self-splicing fitness (ln): -0.411 ± 0.048
37 °C
  self-splicing fitness (ln): -0.201 ± 0.058

## UCACAGCAAUAUUACGAUUU
30 °C
  self-splicing fitness (ln): -4.01 ± 0.21
37 °C
  self-splicing fitness (ln): -0.814 ± 0.11

## CGCGAGCAAUAUUACGACCA
30 °C
  self-splicing fitness (ln): -1.71 ± 0.26
37 °C
  self-splicing fitness (ln): -2.4 ± 0.29
